T1: human NKG2D-Fc fusion protein (human, UniProt P26718 73-216)
T1 construct: extracellular domain; also called recombinant human NKG2D-Fc; human recombinant NKG2D; not shown: human IgG1 Fc domain
T1 sequence (looked up): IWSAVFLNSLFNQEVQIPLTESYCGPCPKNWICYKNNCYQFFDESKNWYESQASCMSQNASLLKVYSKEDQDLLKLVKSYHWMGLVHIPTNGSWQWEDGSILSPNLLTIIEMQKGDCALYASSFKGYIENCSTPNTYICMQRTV

T2: mouse NKG2D-Fc fusion protein (mouse; human, UniProt O54709 90-232)
T2 construct: extracellular domain; also called mouse recombinant NKG2D-Fc; recombinant mouse NKG2D-Fc; not shown: human IgG1 Fc domain
T2 sequence (looked up): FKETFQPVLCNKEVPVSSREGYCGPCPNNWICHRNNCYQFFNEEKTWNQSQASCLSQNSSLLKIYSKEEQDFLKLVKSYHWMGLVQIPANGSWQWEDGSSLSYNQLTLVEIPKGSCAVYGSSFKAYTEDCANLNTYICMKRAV

T3: cynomolgus NKG2D-Fc fusion protein (cynomolgus; human, UniProt P61252 73-216)
T3 construct: extracellular domain; also called cynomolgus recombinant NKG2D-Fc; cynomolgus recombinant NKG2D; not shown: human IgG1 Fc domain
T3 sequence (looked up): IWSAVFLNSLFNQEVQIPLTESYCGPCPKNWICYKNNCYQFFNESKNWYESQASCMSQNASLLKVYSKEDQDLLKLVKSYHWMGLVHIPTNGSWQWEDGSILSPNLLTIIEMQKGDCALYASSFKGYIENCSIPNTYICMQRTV


Key:
Experiment in all cases: ELISA on coated NKG2D-Fc
[1] = biological target: T1, human NKG2D-Fc fusion protein
[2] = biological target: T2, mouse NKG2D-Fc fusion protein
[3] = biological target: T3, cynomolgus NKG2D-Fc fusion protein

binding result [1] | binding result [2] | binding result [3] | Binder
binds | binds | – | ADI-29443 (antibody, V domains shown, also called F43) VH: QLQLQESGPGLVKPSETLSLTCTVSGGSISSSSYYWGWIRQPPGKGLEWIGSIYYSGSTYYNPSLKSRVTISVDTSKNQFSLKLSSVTAADTAVYYCARGSDRFHPYFDYWGQGTLVTVSS VL: EIVLTQSPATLSLSPGERATLSCRASQSVSRYLAWYQQKPGQAPRLLIYDASNRATGIPARFSGSGSGTDFTLTISSLEPEDFAVYYCQQFDTWPPTFGGGTKVEIK
binds | binds | binds | ADI-27705 (antibody, V domains shown) VH: QVQLQQWGAGLLKPSETLSLTCAVYGGSFSGYYWSWIRQPPGKGLEWIGEIDHSGSTNYNPSLKSRVTISVDTSKNQFSLKLSSVTAADTAVYYCARARGPWSFDPWGQGTLVTVSS VL: not shown
binds | binds | binds | ADI-29403 (antibody, V domains shown) VH: QVQLQQWGAGLLKPSETLSLTCAVYGGSFSGYYWSWIRQPPGKGLEWIGEIDHSGSTNYNPSLKSRVTISVDTSKNQFSLKLSSVTAADTAVYYCARARGPWSFDPWGQGTLVTVSS VL: not shown
binds | binds | binds | ADI-27743 (antibody, V domains shown) VH: QVQLQQWGAGLLKPSETLSLTCAVYGGSFSGYYWSWIRQPPGKGLEWIGEIDHSGSTNYNPSLKSRVTISVDTSKNQFSLKLSSVTAADTAVYYCARARGPWSFDPWGQGTLVTVSS VL: not shown
binds | binds | binds | ADI-29424 (antibody, V domains shown) VH: QVQLQQWGAGLLKPSETLSLTCAVYGGSFSGYYWSWIRQPPGKGLEWIGEIDHSGSTNYNPSLKSRVTISVDTSKNQFSLKLSSVTAADTAVYYCARARGPWSFDPWGQGTLVTVSS VL: DIQMTQSPSTLSASVGDRVTITCRASQSISSWLAWYQQKPGKAPKLLIYKASSLESGVPSRFSGSGSGTEFTLTISSLQPDDFATYYCQQYDSFITFGGGTKVEIK
binds | binds | binds | ADI-29399 (antibody, V domains shown) VH: QVQLQQWGAGLLKPSETLSLTCAVYGGSFSGYYWSWIRQPPGKGLEWIGEIDHSGSTNYNPSLKSRVTISVDTSKNQFSLKLSSVTAADTAVYYCARARGPWSFDPWGQGTLVTVSS VL: not shown
binds | binds | binds | ADI-29429 (antibody, V domains shown) VH: QVQLQQWGAGLLKPSETLSLTCAVYGGSFSGYYWSWIRQPPGKGLEWIGEIDHSGSTNYNPSLKSRVTISVDTSKNQFSLKLSSVTAADTAVYYCARARGPWSFDPWGQGTLVTVSS VL: DIQMTQSPSTLSASVGDRVTITCRASQSIGSWLAWYQQKPGKAPKLLIYKASSLESGVPSRFSGSGSGTEFTLTISSLQPDDFATYYCQQYELYSYTFGGGTKVEIK
binds | binds | binds | ADI-27741 (antibody, V domains shown) VH: QVQLQQWGAGLLKPSETLSLTCAVYGGSFSGYYWSWIRQPPGKGLEWIGEIDHSGSTNYNPSLKSRVTISVDTSKNQFSLKLSSVTAADTAVYYCARARGPWSFDPWGQGTLVTVSS VL: DIQMTQSPSTLSASVGDRVTITCRASQSIGSWLAWYQQKPGKAPKLLIYKASSLESGVPSRFSGSGSGTEFTLTISSLQPDDFATYYCQQSNSYYTFGGGTKVEIK
binds | binds | binds | ADI-29401 (antibody, V domains shown) VH: QVQLQQWGAGLLKPSETLSLTCAVYGGSFSGYYWSWIRQPPGKGLEWIGEIDHSGSTNYNPSLKSRVTISVDTSKNQFSLKLSSVTAADTAVYYCARARGPWSFDPWGQGTLVTVSS VL: DIQMTQSPSTLSASVGDRVTITCRASQSIGSWLAWYQQKPGKAPKLLIYKASSLESGVPSRFSGSGSGTEFTLTISSLQPDDFATYYCQQYDIYPTFGGGTKVEIK
binds | binds | binds | ADI-29419 (antibody, V domains shown) VH: QVQLQQWGAGLLKPSETLSLTCAVYGGSFSGYYWSWIRQPPGKGLEWIGEIDHSGSTNYNPSLKSRVTISVDTSKNQFSLKLSSVTAADTAVYYCARARGPWSFDPWGQGTLVTVSS VL: not shown
binds | binds | binds | ADI-29404 (antibody, V domains shown, also called F04) VH: QVQLQQWGAGLLKPSETLSLTCAVYGGSFSGYYWSWIRQPPGKGLEWIGEIDHSGSTNYNPSLKSRVTISVDTSKNQFSLKLSSVTAADTAVYYCARARGPWSFDPWGQGTLVTVSS VL: DIQMTQSPSTLSASVGDRVTITCRASQSISSWLAWYQQKPGKAPKLLIYKASSLESGVPSRFSGSGSGTEFTLTISSLQPDDFATYYCEQYDSYPTFGGGTKVEIK
binds | binds | binds | ADI-29421 (antibody, V domains shown) VH: QVQLQQWGAGLLKPSETLSLTCAVYGGSFSGYYWSWIRQPPGKGLEWIGEIDHSGSTNYNPSLKSRVTISVDTSKNQFSLKLSSVTAADTAVYYCARARGPWSFDPWGQGTLVTVSS VL: not shown
binds | binds | binds | ADI-29407 (antibody, V domains shown) VH: QVQLQQWGAGLLKPSETLSLTCAVYGGSFSGYYWSWIRQPPGKGLEWIGEIDHSGSTNYNPSLKSRVTISVDTSKNQFSLKLSSVTAADTAVYYCARARGPWSFDPWGQGTLVTVSS VL: DIQMTQSPSTLSASVGDRVTITCRASQSISSWLAWYQQKPGKAPKLLIYKASSLESGVPSRFSGSGSGTEFTLTISSLQPDDFATYYCQQYQSFPTFGGGTKVEIK
binds | binds | binds | ADI-28226 (antibody, V domains shown, also called C26) VH: QVQLQQWGAGLLKPSETLSLTCAVYGGSFSGYYWSWIRQPPGKGLEWIGEIDHSGSTNYNPSLKSRVTISVDTSKNQFSLKLSSVTAADTAVYYCARARGPWSFDPWGQGTLVTVSS VL: DIQMTQSPSTLSASVGDRVTITCRASQSISSWLAWYQQKPGKAPKLLIYKASSLESGVPSRFSGSGSGTEFTLTISSLQPDDFATYYCQQYGSFPITFGGGTKVEIK
binds | binds | binds | ADI-29426 (antibody, V domains shown) VH: QVQLQQWGAGLLKPSETLSLTCAVYGGSFSGYYWSWIRQPPGKGLEWIGEIDHSGSTNYNPSLKSRVTISVDTSKNQFSLKLSSVTAADTAVYYCARARGPWSFDPWGQGTLVTVSS VL: DIQMTQSPSTLSASVGDRVTITCRASQSIGSWLAWYQQKPGKAPKLLIYKASSLESGVPSRFSGSGSGTEFTLTISSLQPDDFATYYCQQYHSFPTFGGGTKVEIK
binds | binds | binds | ADI-29425 (antibody, V domains shown) VH: QVQLQQWGAGLLKPSETLSLTCAVYGGSFSGYYWSWIRQPPGKGLEWIGEIDHSGSTNYNPSLKSRVTISVDTSKNQFSLKLSSVTAADTAVYYCARARGPWSFDPWGQGTLVTVSS VL: not shown
binds | binds | binds | ADI-27740 (antibody, V domains shown, also called A40) VH: QVQLQQWGAGLLKPSETLSLTCAVYGGSFSGYYWSWIRQPPGKGLEWIGEIDHSGSTNYNPSLKSRVTISVDTSKNQFSLKLSSVTAADTAVYYCARARGPWSFDPWGQGTLVTVSS VL: DIQMTQSPSTLSASVGDRVTITCRASQSIGSWLAWYQQKPGKAPKLLIYKASSLESGVPSRFSGSGSGTEFTLTISSLQPDDFATYYCQQYHSFYTFGGGTKVEIK
binds | binds | binds | ADI-29405 (antibody, V domains shown) VH: QVQLQQWGAGLLKPSETLSLTCAVYGGSFSGYYWSWIRQPPGKGLEWIGEIDHSGSTNYNPSLKSRVTISVDTSKNQFSLKLSSVTAADTAVYYCARARGPWSFDPWGQGTLVTVSS VL: DIQMTQSPSTLSASVGDRVTITCRASQSISSWLAWYQQKPGKAPKLLIYKASSLESGVPSRFSGSGSGTEFTLTISSLQPDDFATYYCQQYGSFPTFGGGTKVEIK
binds | binds | binds | ADI-27727 (antibody, V domains shown) VH: QVQLVQSGAEVKKPGSSVKVSCKASGGTFSSYAISWVRQAPGQGLEWMGGIIPIFGTANYAQKFQGRVTITADESTSTAYMELSSLRSEDTAVYYCARGDSSIRHAYYYYGMDVWGQGTTVTVSS VL: not shown

Reference: patent publication US20210261668A1 (DRAGONFLY THERAPEUTICS, published 2021)
